Results from patent US20170174769A1 (Regeneron, published 2017).
Like-named read-outs stand apart in the source and are kept apart here.

T1: full-length human KLB on HEK293/hKLB/SRE-luc cells (human, UniProt Q86Z14 1-1044)
T1 construct: amino acids 1-1044 of NP_783864.1
T1 sequence: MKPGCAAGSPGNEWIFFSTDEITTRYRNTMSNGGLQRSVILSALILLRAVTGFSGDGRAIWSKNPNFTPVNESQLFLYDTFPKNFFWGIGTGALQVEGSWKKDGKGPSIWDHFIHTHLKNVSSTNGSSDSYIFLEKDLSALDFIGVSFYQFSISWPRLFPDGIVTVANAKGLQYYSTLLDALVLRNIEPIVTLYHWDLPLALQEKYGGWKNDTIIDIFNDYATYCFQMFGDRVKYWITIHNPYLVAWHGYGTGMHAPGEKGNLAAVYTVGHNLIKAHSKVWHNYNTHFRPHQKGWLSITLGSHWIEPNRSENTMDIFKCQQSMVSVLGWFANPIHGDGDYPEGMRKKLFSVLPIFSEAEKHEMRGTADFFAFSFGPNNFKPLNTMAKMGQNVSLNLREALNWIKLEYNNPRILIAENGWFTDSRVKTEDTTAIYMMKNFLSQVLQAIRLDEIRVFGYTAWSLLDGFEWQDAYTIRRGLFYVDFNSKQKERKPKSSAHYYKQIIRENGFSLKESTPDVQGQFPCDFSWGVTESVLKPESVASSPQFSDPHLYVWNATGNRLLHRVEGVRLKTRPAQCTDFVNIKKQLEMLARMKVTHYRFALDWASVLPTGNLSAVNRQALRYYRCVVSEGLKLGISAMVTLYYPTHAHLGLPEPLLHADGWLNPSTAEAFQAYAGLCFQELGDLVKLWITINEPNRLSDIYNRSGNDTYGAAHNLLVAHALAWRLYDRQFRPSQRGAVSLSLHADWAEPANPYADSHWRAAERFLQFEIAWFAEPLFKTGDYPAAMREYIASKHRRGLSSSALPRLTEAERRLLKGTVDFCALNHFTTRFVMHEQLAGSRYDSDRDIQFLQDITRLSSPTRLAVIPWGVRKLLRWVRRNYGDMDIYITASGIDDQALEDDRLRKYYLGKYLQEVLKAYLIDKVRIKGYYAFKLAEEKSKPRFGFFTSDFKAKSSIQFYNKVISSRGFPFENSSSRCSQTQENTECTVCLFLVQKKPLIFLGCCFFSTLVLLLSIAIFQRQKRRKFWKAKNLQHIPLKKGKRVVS


How the values were obtained:
[1] = target: T2, full-length human FGFR1c on HEK293/hFGFR1c/SRE-luc cells (human, UniProt P11362 22-822); experiment: FACS on stable HEK293 cells
T2 construct: amino acids 1-733 of NP_075593
Method: (§1) To determine binding specificity of the monoclonal anti-KLB/FGFR1c antibodies, the antibodies were tested in a fluorescence-activated cell sorting (FACS) binding assay to cell lines expressing human FGFR1c, human KLB, and both human FGFR1c and human KLB. HEK293 cell lines were generated that stably express full-length human FGFR1c (hFGFR1c; SEQ ID NO:433) or full-length human KLB (hKLB; SEQ ID NO:434) or both human FGFR1c and human KLB, along with a luciferase reporter [SRE (serum response element)-luciferase, SA Bioscience, #CLS-010L]. The resulting cell lines, referred to as HEK293/hFGFR1c/SRE-luc, HEK293/hKLB/SRE-luc, and HEK293/hKLB/hFGFR1c/SRE-luc, respectively, were maintained in DMEM supplemented with 10% FBS, NEAA, penicillin/streptomycin, 1 μg/mL puromycin and […] hygromycin B, 1 μg/mL puromycin and 500 μg/mL G418, or all three antibiotics.
(§2) For the FACS analysis, HEK293 parental, HEK293/hFGFR1c/SRE-luc, HEK293/hKLB/SRE-luc, and HEK293/hKLB/hFGFR1c/SRE-luc cells were dissociated and plated onto 96-well v-bottom plates at 5 x 10⁵ cells/well in PBS containing 1% FBS. […] Cells were filtered and subsequently analyzed on a Hypercyte Flow Cytometer (Intellicyt Corp.). Unstained and secondary antibody alone controls were also tested for binding to all cell lines. The results were analyzed using FlowJo version 9.52 software and geometric mean (Geom. Mean) of fluorescence for viable cells was determined. Geom. mean of fluorescence for each antibody was then normalized to Geom. mean of unstained cells to obtain relative binding of antibody (binding ratios) per each cell type.

[2] = target: T3, human KLB and human FGFR1c co-expressed on HEK293/hKLB/hFGFR1c/SRE-luc cells (human, UniProt Q86Z14 1-1044; P11362 22-822); experiment: FACS on stable HEK293 cells
T3 construct: two receptors co-expressed on one cell line; also called KLB/FGFR1c coreceptor; FGF21R
Method: as §1, §2

[3] = target: T1, full-length human KLB on …; experiment: FACS on stable HEK293 cells
Method: as §1, §2

[4] = target: T3, human KLB and human FGFR1c co-expressed …; experiment: cell-based or functional assay
[5] = target: T4, cell-surface human FGFR1c (amino acids 1-731 of NP_075594) with cell-surface human KLB on … (human, UniProt P11362 22-822); experiment: cell-based or functional assay
[6] = target: mouse KLB and mouse FGFR1c co-expressed on HEK293/mKLB/mFGFR1c/SRE-Luc cells (mouse); experiment: cell-based or functional assay
[7] = target: T2, full-length human FGFR1c on …; experiment: FACS on stable HEK293 cells, 33 nM
Method: For the FACS analysis, HEK293 parental, HEK293/hFGFR1c, HEK293/hFGFR1c/hKLB, and HEK293/mFGFR1c/mKLB cells were dissociated and plated onto 96-well v-bottom plates at 0.5×10⁶ cells/well in 2% FBS/PBS. […] Control mAb2 was tested at a concentration of 965 nM. After primary protein incubation cells were washed and incubated with 3.75 μg/mL fluorescently conjugated secondary antibodies for 30 minutes at 4° C. Cells were filtered and analyzed on Accuri™ 6 Flow Cytometer. Unstained and secondary antibody alone controls were also tested for all cell lines. The results were analyzed using FlowJo version 9.52 software and geometric mean (Geom. Mean) of fluorescence for viable cells were determined. Geom. mean of fluorescence for each antibody was then normalized to Geom. mean of unstained cells to obtain relative binding of antibody (binding ratios) per each cell type.

[8] = target: T4, cell-surface human FGFR1c (amino acids …); experiment: cell-based or functional assay; remark: listed apart in the source

T2 sequence (P11362 other isoform, or with tags, fused parts or gaps limits assumed): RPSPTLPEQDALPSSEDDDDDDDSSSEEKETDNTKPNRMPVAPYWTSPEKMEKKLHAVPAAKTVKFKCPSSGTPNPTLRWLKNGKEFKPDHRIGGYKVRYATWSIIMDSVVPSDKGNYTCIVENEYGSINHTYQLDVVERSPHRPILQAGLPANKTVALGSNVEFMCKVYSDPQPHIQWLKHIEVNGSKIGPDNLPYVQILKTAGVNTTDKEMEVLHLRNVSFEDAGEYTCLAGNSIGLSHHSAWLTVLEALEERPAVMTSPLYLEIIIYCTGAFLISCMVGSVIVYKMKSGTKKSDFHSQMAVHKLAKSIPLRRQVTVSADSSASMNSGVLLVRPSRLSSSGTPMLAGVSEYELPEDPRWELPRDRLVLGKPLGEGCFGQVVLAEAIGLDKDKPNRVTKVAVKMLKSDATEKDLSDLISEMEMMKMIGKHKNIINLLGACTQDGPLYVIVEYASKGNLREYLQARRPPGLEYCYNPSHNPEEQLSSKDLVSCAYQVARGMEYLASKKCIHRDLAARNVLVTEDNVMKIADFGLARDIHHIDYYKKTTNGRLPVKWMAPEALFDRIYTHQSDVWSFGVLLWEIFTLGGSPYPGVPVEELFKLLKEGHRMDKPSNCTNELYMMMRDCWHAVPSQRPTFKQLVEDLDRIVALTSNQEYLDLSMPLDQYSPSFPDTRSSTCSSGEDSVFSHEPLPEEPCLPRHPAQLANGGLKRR

Binder	binding ratio to unstained cells [1]	binding ratio to unstained cells [2]	binding ratio to unstained cells [3]	EC50, SRE-luc activation without ligand [4]	IC50, inhibition of 1 nM 6His-hFGF21 [4]	Maximum Activation (%) [4]	Maximum Inhibition (%) [4]	% Activation [5]	EC50, SRE-luc activation [5]	Maximum Activation (%) without ligand [6]	Maximum Inhibition (%) of 0.8 nM mFGF21 [6]	MFI Ratio to unstained cells [7]	% Activation [8]	EC50, SRE-luc activation [8]
H2aM8092N (antibody, V domains shown, mouse IgG2 Fc (H2aM prefix); also called H2M8092N) VH: QVQLQESGPGLVKPSETLSLTCTVSGGSISSYYWSWIRQPPGKGLDWIGHIYYSGTTYYNPSLKSRVSISLDTSKNQFSLKLSSVTAADTAVYYCARHLRGYSSGREFDYWGQGTLVTVSS VL: DIQMTQSPSSLSASVGGRVSLTCRASQSIFSYLNWYQQKPGKAPKLLIYAASNLQSGVPSRFSGSGSGTDFTLTISSLQPEDFATYSCQQSYNIPYTFGQGTKLEIK	1 fold	46 fold	15 fold	0.29 nM	0.19 nM	0.6%	74%	0.8%	0.15 nM	–	–	–	–	–
H1H8897P (antibody, V domains shown, H1H Fc prefix (human Fc)) VH: QVQLVESGGGLVKPGGSLRLSCAAAGFTFSDYYMSWIRQAPGQGLEWVSYISPSGSTTYYADSVQGRFTISRDNAKSSLYLQMNSLRAEDTAVYYCARTGIQLWSVYFDYWGQGTLVTVSS VL: not shown	1 fold	8 fold	1 fold	–	–	–	–	–	–	3%	50%	–	–	–
H1H8898P (antibody, V domains shown, H1H Fc prefix (human Fc)) VH: QVQLVESGGGLVKPGGSLRLSCAASGFIFSDYYMSWIRQAPGKGLDWISYISPSGSTIYYADSVKGRFTISRDNAKNSLYLQMNSLRADDTAVYYCARTGIQLWSVYFDYWGQGTLVTVSS VL: EIVMTQSPATLSVSPGERATLSCRASQSVGSNLAWYQQKPGQAPRLLIYGASTRANGIPARFSGSGSGTEFTLTISGLQSEDFAVYYCQQYNNWPTFGQGTKLEIK	1 fold	8 fold	1 fold	–	–	–	–	–	–	2%	29%	–	–	–
H4H8880P (antibody, V domains shown, human IgG4 Fc (H4H prefix)) VH: EVQLVESGGGVVQPGGSLRLSCAASGFTFSLYAMSWVRQAPGKGLEWVSAISGSAHGAYYADSVKGRFTISRDNSKNSLYLQMNSLRAEDTAIYYCAKDLVIAVAGTFDYWGQGTLVTVSS VL: DIQMTQSPSSLSASVGDRVTITCRASQIISTYLNWYQQKPGKAPKILIYTASSLKSGVPSRFSGSGSGTDFTLTISSLQPEDFATYYCQQTYSSPRFTFGPGTKVDIK	2 fold	32 fold	14 fold	–	–	–	–	–	–	2%	16%	–	–	–
H1H8900P (antibody, V domains shown, H1H Fc prefix (human Fc)) VH: QVQLVESGGGVVQPGRSLRLSCVASGFTFSSYGMHWVRQAPGKGLEWVAVISFDGSNKYYADSVKGRFTISRDNSKNTLYLQMNSLRPADTAVYYCAKDRSNYYYFGMDVWGQGTTVTVSS VL: DIVMTQTPLSLPVTPGEPASISCRSSQSLLDSDDGNTYLDWYLQKPGQSPQLLIYTLSYRASGVPDRFSGSGSGTDFTLKISRVEAEDVGVYYCMQRIEFPLTFGGGTKVEIK	5 fold	6 fold	1 fold	–	2.2 nM	–	36%	1.4%	> 10 nM	–	–	2 fold	0.7%	47 nM
H2aM8091N (antibody, V domains shown, mouse IgG2 Fc (H2aM prefix); also called H2M8091N) VH: QVQLVQSGADMKKPGASVKVSCKASGYTFTTYGINWVRQAPGQGLEWMGWISAYSGITNYAQSFQGRVTMTTDTSTSTAYMELRSLRSDDTAVYYCARGGYNWATGDYFDYWGQGTLVTVSS VL: DIQMTQSPSTLSASIGDRVTITCRASQSISSWLAWYQQKPGKAPKFLIYKASSLASGVPSRFSGSGSGTEFTLTISSLQPDDFATYYCQQYDSYSPYTFGQGTKVEIK	1 fold	37 fold	8 fold	–	–	–	–	–	–	–	90%	–	–	–
